Assay results from publication PMC7948479, “Allostery in the nitric oxide dioxygenase mechanism of flavohemoglobin” (The Journal of Biological Chemistry, 2020).
Where two headings read alike, the source gives them in different places.

Key:
[1] = target: E. coli flavoHb (Escherichia coli, UniProt P24232)
Description: (§1) FAD and heme reduction were monitored by following the changes in flavoHb absorbance at 460 and 430 nm, respectively, with stopped-flow rapid mixing of 50 μM NADH and 10 μM flavoHb in N2-purged buffer ([4]). O2, NO, and CO association rate constants were determined by photolyzing 50 μM of the respective ferrous flavoHb species with a 300-ns pulse from a 577-nm laser and by spectrophotometrically following ligand reassociation in O2-, NO-, or CO-saturated buffer unless otherwise indicated ([4], [5]). […] Binding of NO was measured by the change of absorbance at 422 nm by applying a difference extinction coefficient of 0.040 μM^−1 cm^−1. O2 and CO dissociation rate constants were determined by stopped-flow rapid mixing with either CO or NO displacement ([4], [5]). The cuvette path length was 1.0 cm. All reactions were at 20 °C in filtered 100 mM sodium phosphate buffer, pH 7.0, containing 0.3 mM EDTA. Catalase (1000 U/ml) was included in all reactions containing O2 to scavenge H2O2 produced by the NADH oxidase activity of flavoHb and to regenerate O2.

[2] = system: flavoHb heme (Fe^2+ / Fe^3+); conditions: for Kd: from slow phase; for time for 90% activity recovery following NO binding: calculated from k(NO)
Description: as §1

[3] = target: flavoHb heme (Fe^2+ / Fe^3+) (Escherichia coli, UniProt P24232)
Description: as §1

[4] = system: E. coli flavoHb
Description: as §1

[5] = target: E. coli flavoHb-NOD (Escherichia coli, UniProt P24232); format: biochemical; design: made in house; host or cells: E. coli hmp deletion strain AG103 carrying pUC19hmp
Source text: We have formulated a steady-state velocity equation for the catalytic cycle with the activating trigger step (KT) (Equation 1).(1) v= Vmax(a) where a=([NO]^2[O2]^2/K1K2K3KTK4)/(1+([O2]/K1)+([O2]^2/K1K2)+(([O2]^2[NO])/K1K2K3)+(([O2]^2[NO])/K1K2K3KT)+(([O2]^2[NO]^2)/K1K2K3KTK4))
(2) v= Vmax(a)(b) where b=[NO]/(K3+([NO](1+((K2/[O2])(1+([NO]/Ki(NO)))))))
In addition, we have introduced a factor and equilibrium constant Ka(O2) for rare situations in which O2 causes an additional NO-independent activation of catalysis possibly by occupying unique binding sites or cavities (Equation 5).
NOD activity was measured amperometrically in 100 mM phosphate buffer, pH 7.0, containing 0.3 mM EDTA, 100 μg/ml bovine serum albumin (BSA) (Fraction V), 100 μM NADH, 0.1 μM FAD with NO, O2, and N2 mixtures added as described ([4], [72]). NADH oxidase activity was followed spectrophotometrically at 340 nm in a 1.0-ml cuvette containing 90 mM Tris chloride buffer, pH 8.2, 100 μM NADH, 200 μM O2, 0.1 μM FAD, 100 μg/ml BSA, and 0.3 mM EDTA and incubated at 37 °C. Cytochrome b5 reductase activity was assayed at 37 °C by following the rate of absorbance increase at 555 nm in a 1.0-ml reaction buffered with 90 mM Tris chloride, pH 8.2, and containing 10 μM ferric cytochrome b5, 200 μM O2, 20 μM NADH, 0.1 μM FAD, 100 μg/ml BSA, and 0.3 mM EDTA. TMAO reductase activity was assayed by following the absorbance decrease at 340 nm in a 1.0-ml anaerobic reaction containing 12 U Aspergillus niger glucose oxidase, 5 mM glucose, 260 U catalase, 400 mM TMAO, 100 μM NADH, 0.1 μM FAD, 100 μg/ml BSA, and 0.3 mM EDTA in 90 mM Tris chloride pH 8.2 and incubated at 37 °C. Ngb reductase activity was assayed by following the absorbance increase at 424 nm in a 1.0-ml anaerobic reaction containing 12 U glucose oxidase, 5 mM glucose, 260 U catalase, 5 μM Ngb, 50 μM NADH, 0.1 μM FAD, 100 μg/ml BSA, and 0.3 mM EDTA in 90 mM Tris chloride buffer, pH 8.2, and incubated at 37 °C. Methyl viologen reductase activity was assayed by following the formation of the blue cation radical at 603 nm and by applying an extinction coefficient of 13,300 M^−1 cm^−1 in a 1.0-ml anaerobic reaction buffered with 10 mM potassium phosphate, pH 7.0, and containing 12 U glucose oxidase, 5 mM glucose, 260 U catalase, 100 μM NADH, 0.1 μM FAD, 100 μg/ml BSA, 0.3 mM EDTA, and 200 mM sodium chloride and incubated at 37 °C. NO reductase activity was assayed amperometrically at 37 °C in a 1.0-ml anaerobic reaction containing 2 μM NO, 100 μM NADH, 0.1 μM FAD, 12 U glucose oxidase, 5 mM glucose, 260 U catalase, 100 μg/ml BSA, and 0.3 mM EDTA buffered with 10 mM potassium phosphate pH 7.0. CO effects were tested at a final concentration of 50 μM as diluted from a 1 mM stock in water. All activities are reported relative to the heme content of flavoHb.
Rate constants were estimated from the model kinetic equation using Python programming with successive approximations to optimize fits with varying NO and O2 concentrations. Vmax, K1, K2, KT, and Kii(NO) values were treated as independent variables for a given flavoHb while allowing K3, K4, and Ki(NO) to vary over limited ranges with varying O2 concentration. Kii(NO) was estimated from NO inhibition at saturating O2 concentrations.

[6] = Fe2+ CO, 100 µM CO in the presence of 0.6 mM N2
[7] = Fe2+ O2, 100 µM CO in the presence of 1 mM O2

B1: WT: wild-type E. coli flavohemoglobin (flavoHb), an NO dioxygenase (NOD) (protein, UniProt P24232 1-396, looked up)
Flavohemoprotein: MLDAQTIATVKATIPLLVETGPKLTAHFYDRMFTHNPELKEIFNMSNQRNGDQREALFNAIAAYASNIENLPALLPAVEKIAQKHTSFQIKPEQYNIVGEHLLATLDEMFSPGQEVLDAWGKAYGVLANVFINREAEIYNENASKAGGWEGTRDFRIVAKTPRSALITSFELEPVDGGAVAEYRPGQYLGVWLKPEGFPHQEIRQYSLTRKPDGKGYRIAVKREEGGQVSNWLHNHANVGDVVKLVAPAGDFFMAVADDTPVTLISAGVGQTPMLAMLDTLAKAGHTAQVNWFHAAENGDVHAFADEVKELGQSLPRFTAHTWYRQPSEADRAKGQFDSEGLMDLSKLEGAFSDPTMQFYLCGPVGFMQFTAKQLVDLGVKQENIHYECFGPHKVL
**Q.** Which results are given for B1?
**A.** k′H, bimolecular rate constant for hydride transfer NADH to FAD [1]: 1.5e+07 M⁻¹ s⁻¹; k' fast [2, 6]: 2.9e+07 M⁻¹ s⁻¹; k' slow [2, 6]: 2.7e+06 M⁻¹ s⁻¹; τT [2, 6]: 500 ± 100 µs; k' fast [2, 7]: 2.9e+07 M⁻¹ s⁻¹; k' slow [2, 7]: 1.9e+06 M⁻¹ s⁻¹; τT [2, 7]: 70 ± 10 µs; k′fast ([2]; Fe^2+ CO, 20 °C): 1.4e+07 M⁻¹ s⁻¹; k′slow ([2]; Fe^2+ CO, 20 °C): 1.4e+06 M⁻¹ s⁻¹; τT ([2]; Fe^2+ CO, 20 °C): 175 ± 25 μs; Kd ([2]; Fe^2+ CO, 20 °C): 12 to 39 nM; k′fast ([2]; Fe^2+ NO, 20 °C): 3.1e+07 M⁻¹ s⁻¹; k′slow ([2]; Fe^2+ NO, 20 °C): 8.5e+06 M⁻¹ s⁻¹; τT ([2]; Fe^2+ NO, 20 °C): 40 ± 10 μs; Kd ([2]; Fe^2+ NO): 0.024 nM; k′fast ([2]; Fe^2+ O2, 20 °C): 3.3e+07 M⁻¹ s⁻¹; k′slow ([2]; Fe^2+ O2, 20 °C): 1.4e+07 M⁻¹ s⁻¹; τT ([2]; Fe^2+ O2, 20 °C): 70 ± 5 μs; k ([2]; Fe^2+ O2 dissociation, 20 °C): 0.20 s⁻¹; k′fast ([2]; Fe^3+ NO, 20 °C): 4.6e+07 M⁻¹ s⁻¹; k′slow ([2]; Fe^3+ NO, 20 °C): 1.2e+07 M⁻¹ s⁻¹; τT ([2]; Fe^3+ NO, 20 °C): 18 ± 3 μs; Kd ([2]; Fe^3+ NO): 330000 nM; time for 90% activity recovery following NO binding ([2]; ferric NO form): 0.6 ms; time for 90% activity recovery following NO binding ([2]; ferrous NO species): 1.15e+07 ms; decrease of fraction of flavoHbFe^3+O2^− formed in the fast phase [3]: ~50%; τT for O2 rebinding [3]: ~55 μs; kET, heme reduction by FADH2 (maximum / apparent) ([4]; 20 °C, absorbance at 430 nm): 120 s⁻¹; maximal NADH-driven ET rate measured by stopped flow ([4]; Fig. 9B): 160 s⁻¹; Vmax/K3 [5]: 2.3e+09 M⁻¹ s⁻¹; bimolecular rate constant of ferric–superoxide complex with internalized NO [5]: 10^10 M^−1 s^−1; k'NOD estimated from the Vmax/K4 ratio [5]: 1 to 2 × 10^10 M^−1 s^−1; velocity of NOD activity [5]: 8 s⁻¹; Ki ([5]; read-out: Ki(NO) for NO competition with O2 for LT entry): 300 to 1200 nM
